Assays:
HeLa Kyoto [1] = test: solubility in G1/S (NP-40 vs SDS abundance) (log2 ratio); higher = more soluble; conditions: cell cycle stage: G1/S
HeLa Kyoto [2] = test: melting temperature (median over replicates), in situ; higher = more thermally stable
HeLa Kyoto [3] = test: solubility change mitosis vs G1/S (difference of NP-40 vs SDS log2 ratios) (log2 ratio difference); higher = more soluble in mitosis
HeLa Kyoto [4] = test: thermal stability score vs G1/S (z-score of summed log2 fold changes over temperatures); higher = more thermally stable than in G1/S
[5] = cell cycle stage: early G1 (4.5 h after nocodazole release)
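Throughout, for melting temperature (median over replicates), in situ: HeLa Kyoto cells synchronized by double thymidine or nocodazole block, proteins quantified by TMT10plex mass spectrometry, three independent biological replicates.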
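Throughout, for solubility change mitosis vs G1/S (difference of NP-40 vs SDS log2 ratios): synchronized HeLa Kyoto cells (double thymidine block for G1/S, nocodazole release for mitosis), protein amounts in NP-40 versus SDS lysates quantified by mass spectrometry, three biological replicates.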
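Throughout, for solubility in G1/S (NP-40 vs SDS abundance): HeLa Kyoto cells arrested at G1/S by double thymidine block, proteins quantified by TMT10plex mass spectrometry in mild NP-40 versus SDS extracts, three biological replicates.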
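Throughout, for thermal stability score vs G1/S (z-score of summed log2 fold changes over temperatures): synchronized HeLa Kyoto cells, proteins quantified by TMT10plex mass spectrometry, three biological replicates, mitosis taken 0.5 h after nocodazole release, G1/S directly after double thymidine block.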

| Sequence | solubility in G1/S (log2) (HeLa Kyoto [1]) | melting temperature (HeLa Kyoto [2]; cell cycle stage: G1/S) [°C] | melting temperature (HeLa Kyoto [2]; cell cycle stage: mitosis) [°C] | solubility change mitosis (log2) (HeLa Kyoto [3]) | thermal stability score (HeLa Kyoto [4]; [5]) | thermal stability score (HeLa Kyoto [4]; cell cycle stage: mitosis) |
| --- | --- | --- | --- | --- | --- | --- |
| MTDNIPLQPVRQKKRMDSRPRAGCCEWLRCCGGGEARPRTVWLGHPEKRDQRYPRNVINNQKYNFFTFLPGVLFNQFKYFFNLYFLLLACSQFVPEMRLGALYTYWVPLGFVLAVTVIREAVEEIRCYVRDKEVNSQVYSRLTARGTVKVKSSNIQVGDLIIVEKNQRVPADMIFLRTSEKNGSCFLRTDQLDGETDWKLRLPVACTQRLPTAADLLQIRSYVYAEEPNIDIHNFVGTFTREDSDPPISESLSIENTLWAGTVVASGTVVGVVLYTGRELRSVMNTSNPRSKIGLFDLEVNCLTKILFGALVVVSLVMVALQHFAGRWYLQIIRFLLLFSNIIPISLRVNLDMGKIVYSWVIRRDSKIPGTVVRSSTIPEQLGRISYLLTDKTGTLTQNEMIFKRLHLGTVAYGLDSMDEVQSHIFSIYTQQSQDPPAQKGPTLTTKVRRTMSSRVHEAVKAIALCHNVTPVYESNGVTDQAEAEKQYEDSCRVYQASSPDEVALVQWTESVGLTLVGRDQSSMQLRTPGDQILNFTILQIFPFTYESKRMGIIVRDESTGEITFYMKGADVVMAGIVQYNDWLEEECGNMAREGLRVLVVAKKSLAEEQYQDFEARYVQAKLSVHDRSLKVATVIESLEMEMELLCLTGVEDQLQADVRPTLETLRNAGIKVWMLTGDKLETATCTAKNAHLVTRNQDIHVFRLVTNRGEAHLELNAFRRKHDCALVISGDSLEVCLKYYEYEFMELACQCPAVVCCRCAPTQKAQIVRLLQERTGKLTCAVGDGGNDVSMIQESDCGVGVEGKEGKQASLAADFSITQFKHLGRLLMVHGRNSYKRSAALSQFVIHRSLCISTMQAVFSSVFYFASVPLYQGFLIIGYSTIYTMFPVFSLVLDKDVKSEVAMLYPELYKDLLKGRPLSYKTFLIWVLISIYQGSTIMYGALLLFESEFVHIVAISFTSLILTELLMVALTIQTWHWLMTVAELLSLACYIASLVFLHEFIDVYFIATLSFLWKVSVITLVSCLPLYVLKYLRRRFSPPSYSKLTS [ATP9A] | -0.6 | 57.4 | 58.4 | 0.0184 | -4.08 | -4.01 |
| MTDQAFVTLTTNDAYAKGALVLGSSLKQHRTTRRLVVLATPQVSDSMRKVLETVFDEVIMVDVLDSGDSAHLTLMKRPELGVTLTKLHCWSLTQYSKCVFMDADTLVLANIDDLFDREELSAAPDPGWPDCFNSGVFVYQPSVETYNQLLHLASEQGSFDGGDQGILNTFFSSWATTDIRKHLPFIYNLSSISIYSYLPAFKVFGASAKVVHFLGRVKPWNYTYDPKTKSVKSEAHDPNMTHPEFLILWWNIFTTNVLPLLQQFGLVKDTCSYVNVLSDLVYTLAFSCGFCRKEDVSGAISHLSLGEIPAMAQPFVSSEERKERWEQGQADYMGADSFDNIKRKLDTYLQ [GYG1] | 0.0958 | 56.3 | 52.1 | -0.149 | -3.5 | -5.58 |
| MTDSKYFTTNKKGEIFELKAELNNEKKEKRKEAVKKVIAAMTVGKDVSSLFPDVVNCMQTDNLELKKLVYLYLMNYAKSQPDMAIMAVNSFVKDCEDPNPLIRALAVRTMGCIRVDKITEYLCEPLRKCLKDEDPYVRKTAAVCVAKLHDINAQMVEDQGFLDSLRDLIADSNPMVVANAVAALSEISESHPNSNLLDLNPQNINKLLTALNECTEWGQIFILDCLSNYNPKDDREAQSICERVTPRLSHANSAVVLSAVKVLMKFLELLPKDSDYYNMLLKKLAPPLVTLLSGEPEVQYVALRNINLIVQKRPEILKQEIKVFFVKYNDPIYVKLEKLDIMIRLASQANIAQVLAELKEYATEVDVDFVRKAVRAIGRCAIKVEQSAERCVSTLLDLIQTKVNYVVQEAIVVIRDIFRKYPNKYESIIATLCENLDSLDEPDARAAMIWIVGEYAERIDNADELLESFLEGFHDESTQVQLTLLTAIVKLFLKKPSETQELVQQVLSLATQDSDNPDLRDRGYIYWRLLSTDPVTAKEVVLSEKPLISEETDLIEPTLLDELICHIGSLASVYHKPPNAFVEGSHGIHRKHLPIHHGSTDAGDSPVGTTTATNLEQPQVIPSQGDLLGDLLNLDLGPPVNVPQVSSMQMGAVDLLGGGLDSLVGQSFIPSSVPATFAPSPTPAVVSSGLNDLFELSTGIGMAPGGYVAPKAVWLPAVKAKGLEISGTFTHRQGHIYMEMNFTNKALQHMTDFAIQFNKNSFGVIPSTPLAIHTPLMPNQSIDVSLPLNTLGPVMKMEPLNNLQVAVKNNIDVFYFSCLIPLNVLFVEDGKMERQVFLATWKDIPNENELQFQIKECHLNADTVSSKLQNNNVYTIAKRNVEGQDMLYQSLKLTNGIWILAELRIQPGNPNYTLSLKCRAPEVSQYIYQVYDSILKN [AP2B1] | 0.198 | 51.6 | 52 | -0.0379 | -1.91 | 3.3 |
| MTDTRRRVKVYTLNEDRQWDDRGTGHVSSGYVERLKGMSLLVRAESDGSLLLESKINPNTAYQKQQDTLIVWSEAENYDLALSFQEKAGCDEIWEKICQVQGKDPSVDITQDLVDESEEERFDDMSSPGLELPSCELSRLEEIAELVASSLPSPLRREKLALALENEGYIKKLLELFHVCEDLENIEGLHHLYEIIKGIFLLNRTALFEVMFSEECIMDVIGCLEYDPALSQPRKHREFLTKTAKFKEVIPISDPELKQKIHQTYRVQYIQDMVLPTPSVFEENMLSTLHSFIFFNKVEIVGMLQEDEKFLTDLFAQLTDEATDEEKRQELVNFLKEFCAFSQTLQPQNRDAFFKTLSNMGILPALEVILGMDDTQVRSAATDIFSYLVEYNPSMVREFVMQEAQQNDDVSKKLTEQKITSKDILLINLIIEHMICDTDPELGGAVQLMGLLRTLVDPENMLATANKTEKTEFLGFFYKHCMHVLTAPLLANTTEDKPSKDDFQTAQLLALVLELLTFCVEHHTYHIKNYIINKDILRRVLVLMASKHAFLALCALRFKRKIIGLKDEFYNRYIMKSFLFEPVVKAFLNNGSRYNLMNSAIIEMFEFIRVEDIKSLTAHVIENYWKALEDVDYVQTFKGLKLRFEQQRERQDNPKLDSMRSILRNHRYRRDARTLEDEEEMWFNTDEDDMEDGEAVVSPSDKTKNDDDIMDPISKFMERKKLKESEEKEVLLKTNLSGRQSPSFKLSLSSGTKTNLTSQSSTTNLPGSPGSPGSPGSPGSPGSVPKNTSQTAAITTKGGLVGLVDYPDDDEDDDEDEDKEDTLPLSKKAKFDS [PPP4R3A] | 0.0151 | 52.9 | 52 | -0.214 | -0.659 | 0.337 |
| MTEGTCLRRRGGPYKTEPATDLGRWRLNCERGRQTWTYLQDERAGREQTGLEAYALGLDTKNYFKDLPKAHTAFEGALNGMTFYVGLQAEDGHWTGDYGGPLFLLPGLLITCHVARIPLPAGYREEIVRYLRSVQLPDGGWGLHIEDKSTVFGTALNYVSLRILGVGPDDPDLVRARNILHKKGGAVAIPSWGKFWLAVLNVYSWEGLNTLFPEMWLFPDWAPAHPSTLWCHCRQVYLPMSYCYAVRLSAAEDPLVQSLRQELYVEDFASIDWLAQRNNVAPDELYTPHSWLLRVVYALLNLYEHHHSAHLRQRAVQKLYEHIVADDRFTKSISIGPISKTINMLVRWYVDGPASTAFQEHVSRIPDYLWMGLDGMKMQGTNGSQIWDTAFAIQALLEAGGHHRPEFSSCLQKAHEFLRLSQVPDNPPDYQKYYRQMRKGGFSFSTLDCGWIVSDCTAEALKAVLLLQEKCPHVTEHIPRERLCDAVAVLLNMRNPDGGFATYETKRGGHLLELLNPSEVFGDIMIDYTYVECTSAVMQALKYFHKRFPEHRAAEIRETLTQGLEFCRRQQRADGSWEGSWGVCFTYGTWFGLEAFACMGQTYRDGTACAEVSRACDFLLSRQMADGGWGEDFESCEERRYLQSAQSQIHNTCWAMMGLMAVRHPDIEAQERGVRCLLEKQLPNGDWPQENIAGVFNKSCAISYTSYRNIFPIWALGRFSQLYPERALAGHP [LSS] | -0.253 | 52.7 | 52.6 | 0.0123 | 0.214 | 0.242 |
| MTFYLFGIRSFPKLWKSPYLGLGPGHSYVSLFLADRCGIRNQQRLFSLKTMSPQNTKATNLIAKARYLRKDEGSNKQVYSVPHFFLAGAAKERSQMNSQTEDHALAPVRNTIQLPTQPLNSEEWDKLKEDLKENTGKTSFESWIISQMAGCHSSIDVAKSLLAWVAAKNNGIVSYDLLVKYLYLCVFHMQTSEVIDVFEIMKARYKTLEPRGYSLLIRGLIHSDRWREALLLLEDIKKVITPSKKNYNDCIQGALLHQDVNTAWNLYQELLGHDIVPMLETLKAFFDFGKDIKDDNYSNKLLDILSYLRNNQLYPGESFAHSIKTWFESVPGKQWKGQFTTVRKSGQCSGCGKTIESIQLSPEEYECLKGKIMRDVIDGGDQYRKTTPQELKRFENFIKSRPPFDVVIDGLNVAKMFPKVRESQLLLNVVSQLAKRNLRLLVLGRKHMLRRSSQWSRDEMEEVQKQASCFFADDISEDDPFLLYATLHSGNHCRFITRDLMRDHKACLPDAKTQRLFFKWQQGHQLAIVNRFPGSKLTFQRILSYDTVVQTTGDSWHIPYDEDLVERCSCEVPTKWLCLHQKT [KIAA0391] | 0.189 | 47.8 | 48.4 | -0.118 | 0.296 | 1.88 |
| MTHWFHRNPLKATAPVSFNYYGVVTGPSASKICNDLRSSRARLLELFTDLSCNPEMMKNAADSYFSLLQGFINSLDESTQESKLRYIQNFKWTDTLQGQVPSAQQDAVFELISMGFNVALWYTKYASRLAGKENITEDEAKEVHRSLKIAAGIFKHLKESHLPKLITPAEKGRDLESRLIEAYVIQCQAEAQEVTIARAIELKHAPGLIAALAYETANFYQKADHTLSSLEPAYSAKWRKYLHLKMCFYTAYAYCYHGETLLASDKCGEAIRSLQEAEKLYAKAEALCKEYGETKGPGPTVKPSGHLFFRKLGNLVKNTLEKCQRENGFIYFQKIPTEAPQLELKANYGLVEPIPFEFPPTSVQWTPETLAAFDLTKRPKDDSTKPKPEEEVKPVKEPDIKPQKDTGCYIS [BROX] | 0.511 | 49.6 | 49.8 | -0.114 | -0.298 | 0.407 |
| MTILPKKKPPPPDADPANEPPPPGPMPPAPRRGGGVGVGGGGTGVGGGDRDRDSGVVGARPRASPPPQGPLPGPPGALHRWALAVPPGAVAGPRPQQASPPPCGGPGGPGGGPGDALGAAAAGVGAAGVVVGVGGAVGVGGCCSGPGHSKRRRQAPGVGAVGGGSPEREEVGAGYNSEDEYEAAAARIEAMDPATVEQQEHWFEKALRDKKGFIIKQMKEDGACLFRAVADQVYGDQDMHEVVRKHCMDYLMKNADYFSNYVTEDFTTYINRKRKNNCHGNHIEMQAMAEMYNRPVEVYQYSTGTSAVEPINTFHGIHQNEDEPIRVSYHRNIHYNSVVNPNKATIGVGLGLPSFKPGFAEQSLMKNAIKTSEESWIEQQMLEDKKRATDWEATNEAIEEQVARESYLQWLRDQEKQARQVRGPSQPRKASATCSSATAAASSGLEEWTSRSPRQRSSASSPEHPELHAELGMKPPSPGTVLALAKPPSPCAPGTSSQFSAGADRATSPLVSLYPALECRALIQQMSPSAFGLNDWDDDEILASVLAVSQQEYLDSMKKNKVHRDPPPDKS [OTUD5] | 0.259 | 51.6 | 52.4 | 0.178 | -1.93 | 0.592 |
| MTKSNGEEPKMGGRMERFQQGVRKRTLLAKKKVQNITKEDVKSYLFRNAFVLLTVTAVIVGTILGFTLRPYRMSYREVKYFSFPGELLMRMLQMLVLPLIISSLVTGMAALDSKASGKMGMRAVVYYMTTTIIAVVIGIIIVIIIHPGKGTKENMHREGKIVRVTAADAFLDLIRNMFPPNLVEACFKQFKTNYEKRSFKVPIQANETLVGAVINNVSEAMETLTRITEELVPVPGSVNGVNALGLVVFSMCFGFVIGNMKEQGQALREFFDSLNEAIMRLVAVIMWYAPVGILFLIAGKIVEMEDMGVIGGQLAMYTVTVIVGLLIHAVIVLPLLYFLVTRKNPWVFIGGLLQALITALGTSSSSATLPITFKCLEENNGVDKRVTRFVLPVGATINMDGTALYEALAAIFIAQVNNFELNFGQIITISITATAASIGAAGIPQAGLVTMVIVLTSVGLPTDDITLIIAVDWFLDRLRTTTNVLGDSLGAGIVEHLSRHELKNRDVEMGNSVIEENEMKKPYQLIAQDNETEKPIDSETKM [SLC1A3] | -0.131 | 61.8 | 58 | 0.0284 | -4.57 | -5.19 |

Source: the supplement of paper PMC5998384
